Assay results as given in patent publication US20230057263A1 (CYTOMX THERAPEUTICS, published 2023).
No end group written: not given here. *: point of attachment. Biotin = O=C1N[C@H]2[C@H](CS[C@H]2CCCCC(=O)*)N1; code X = not defined here; linker = not defined here

Legend:
Experiment in all cases: Luminex bead assay, 1 ug/ml antibody [Cont.]
[1] = target: T1, (H2N-KEFSELEQSGYYVCYPRGSNPEDA-OH) vCD3e #p3-BSA (conjugated to BSA)
T1 construct: also called control peptide #p3
T1 peptide: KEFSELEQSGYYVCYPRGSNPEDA
Protocol: (§1) A set of experiments was performed to map the epitope recognized by the anti-CD3ε antibodies. In these experiments, the anti-CD3ε antibodies were assessed for binding to a collection of overlapping 15-mer peptides spanning amino acids 1-27 of human CD3ε protein using a Luminex bead assay. Control CD3 proteins, control peptides, or the test peptides were immobilized on Luminex beads and incubated with a panel of anti-CD3 antibodies. Binding of the anti-CD3 antibodies to the peptide/protein immobilized on the Luminex bead was detected by R-Phycoerythrin conjugated secondary antibody.
(§2) Recombinant CD3 proteins (human CD3d/e heterodimer and cynomolgus CD3-epsilon (Sinobiological)) and control peptides (#p1, #p2, and #p3) were conjugated to Luminex beads using standard EDC/Sulfo-NHS chemistry. The 15-mer test peptides were synthesized as biotinylated peptides at JPT Peptide Technologies Gmbh and were immobilized on streptavidin-conjugated Luminex beads that were made using standard EDC/Sulfo-NHS chemistry and streptavidin (Invitrogen Cat. No. 434301 lot 1626028A). The Luminex beads with immobilized peptides or reagents were incubated with 50 ul of a panel of anti-CD3 antibodies (1 ug/ml) for one hour at room temperature, washed two times, incubated with mixture of anti-human and anti-mouse IgG-RPE (Jackson Immunoresearch 109-116-097 and Southern Biotech 1030-09, respectively) for 30 mins at RT, washed three times, and analyzed in the Luminex instrument to assess the level of bound anti-CD3 antibodies.

B X DGNEEMGGITQTPYK = target: T2, B X DGNEEMGGITQTPYK (reading uncertain)
T2 construct: row 3 of the chart; also called biotinylated 15-mer, residues 2-16
T2 peptide: {Biotin-code X}-DGNEEMGGITQTPYK
Protocol: as §1, §2

B X NEEMGGITQTPYKVS = target: T3, B X NEEMGGITQTPYKVS (reading uncertain)
T3 construct: row 5 of the chart; also called biotinylated 15-mer, residues 4-18
T3 peptide: {Biotin-code X}-NEEMGGITQTPYKVS
Protocol: as §1, §2

B X EEMGGITQTPYKVSI = target: T4, B X EEMGGITQTPYKVSI (reading uncertain)
T4 construct: row 6 of the chart; also called biotinylated 15-mer, residues 5-19
T4 peptide: {Biotin-code X}-EEMGGITQTPYKVSI
Protocol: as §1, §2

B X EMGGITQTPYKVSIS = target: T5, B X EMGGITQTPYKVSIS (reading uncertain)
T5 construct: row 7 of the chart; also called biotinylated 15-mer, residues 6-20
T5 peptide: {Biotin-code X}-EMGGITQTPYKVSIS
Protocol: as §1, §2

B X MGGITQTPYKVSISG = target: T6, B X MGGITQTPYKVSISG (reading uncertain)
T6 construct: row 8 of the chart; also called biotinylated 15-mer, residues 7-21
T6 peptide: {Biotin-code X}-MGGITQTPYKVSISG
Protocol: as §1, §2

B X TQTPYKVSISGTTVI = target: T7, B X TQTPYKVSISGTTVI (reading uncertain)
T7 construct: row 12 of the chart; also called biotinylated 15-mer, residues 11-25
T7 peptide: {Biotin-code X}-TQTPYKVSISGTTVI
Protocol: as §1, §2

B X TPYKVSISGTTVILT = target: T8, B X TPYKVSISGTTVILT (reading uncertain)
T8 construct: row 14 of the chart; also called biotinylated 15-mer, residues 13-27
T8 peptide: {Biotin-code X}-TPYKVSISGTTVILT
Protocol: as §1, §2

B X ADGNEEMGGITQTPY = target: T9, B X ADGNEEMGGITQTPY (reading uncertain)
T9 construct: row 15 of the chart; also called alanine-scan peptide Q1A
T9 peptide: {Biotin-code X}-ADGNEEMGGITQTPY
Protocol: as §1, §2

B X QAGNEEMGGITQTP = target: T10, B X QAGNEEMGGITQTP (reading uncertain)
T10 construct: row 16 of the chart; also called alanine-scan peptide D2A
T10 peptide: {Biotin-code X}-QAGNEEMGGITQTP
Protocol: as §1, §2

B X QDANEEMGGITQTP = target: T11, B X QDANEEMGGITQTP (reading uncertain)
T11 construct: row 17 of the chart; 14 residues; also called alanine-scan peptide G3A
T11 peptide: {Biotin-code X}-QDANEEMGGITQTP
Protocol: as §1, §2

B X QDGNEAMGGITQTP = target: T12, B X QDGNEAMGGITQTP (reading uncertain)
T12 construct: row 20 of the chart; 14 residues; also called alanine-scan peptide E6A
T12 peptide: {Biotin-code X}-QDGNEAMGGITQTP
Protocol: as §1, §2

B X QDGNEEAGGITQTP = target: T13, B X QDGNEEAGGITQTP (reading uncertain)
T13 construct: row 21 of the chart; 14 residues; also called alanine-scan peptide M7A
T13 peptide: {Biotin-code X}-QDGNEEAGGITQTP
Protocol: as §1, §2

B X QDGNEEMAGITQTP = target: T14, B X QDGNEEMAGITQTP (reading uncertain)
T14 construct: row 22 of the chart; 14 residues; also called alanine-scan peptide G8A
T14 peptide: {Biotin-code X}-QDGNEEMAGITQTP
Protocol: as §1, §2

B X QDGNEEMGAITQTP = target: T15, B X QDGNEEMGAITQTP (reading uncertain)
T15 construct: row 23 of the chart; 14 residues; also called alanine-scan peptide G9A
T15 peptide: {Biotin-code X}-QDGNEEMGAITQTP
Protocol: as §1, §2

B X QDGNEEMGGIAQTP = target: T16, B X QDGNEEMGGIAQTP (reading uncertain)
T16 construct: row 25 of the chart; 14 residues; also called alanine-scan peptide T11A
T16 peptide: {Biotin-code X}-QDGNEEMGGIAQTP
Protocol: as §1, §2

huCD3d/eCHO-E DT1331 = target: T17, huCD3d/eCHO-E DT1331 (human, UniProt P04234)
T17 construct: recombinant, part of a CD3 delta/epsilon heterodimer; coupled to Luminex beads
Protocol: as §1, §2

BSA alone = target: T18, BSA alone (bovine, UniProt P02769)
T18 construct: carrier protein without peptide
Protocol: as §1, §2

vCD3e #p1 peptide = target: T19, vCD3e #p1 peptide
T19 construct: also called control peptide #p1
Protocol: as §1, §2

[2] = target: T20, biotinylated 15-mer peptide corresponding to the CD3ε N-terminus (human, UniProt P07766 22-36, limits assumed, not fully specified; reading uncertain)
T20 construct: domain: N-terminal 15-mer; Immobilised on streptavidin-conjugated Luminex beads; The text says 'peptides' in the plural, so more than one overlapping N-terminal 15-mer may be meant; also called N-terminal 15-mer; biotinylated N-terminal 15-mer
T20 peptide (looked up): {Biotin-linker}-QDGNEEMGGITQTPY
Protocol: as §1, §2

T17 sequence (P04234 22-105): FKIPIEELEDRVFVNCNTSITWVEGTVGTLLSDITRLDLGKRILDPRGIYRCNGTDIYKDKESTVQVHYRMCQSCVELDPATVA
T18 sequence (P02769 25-607 limits assumed): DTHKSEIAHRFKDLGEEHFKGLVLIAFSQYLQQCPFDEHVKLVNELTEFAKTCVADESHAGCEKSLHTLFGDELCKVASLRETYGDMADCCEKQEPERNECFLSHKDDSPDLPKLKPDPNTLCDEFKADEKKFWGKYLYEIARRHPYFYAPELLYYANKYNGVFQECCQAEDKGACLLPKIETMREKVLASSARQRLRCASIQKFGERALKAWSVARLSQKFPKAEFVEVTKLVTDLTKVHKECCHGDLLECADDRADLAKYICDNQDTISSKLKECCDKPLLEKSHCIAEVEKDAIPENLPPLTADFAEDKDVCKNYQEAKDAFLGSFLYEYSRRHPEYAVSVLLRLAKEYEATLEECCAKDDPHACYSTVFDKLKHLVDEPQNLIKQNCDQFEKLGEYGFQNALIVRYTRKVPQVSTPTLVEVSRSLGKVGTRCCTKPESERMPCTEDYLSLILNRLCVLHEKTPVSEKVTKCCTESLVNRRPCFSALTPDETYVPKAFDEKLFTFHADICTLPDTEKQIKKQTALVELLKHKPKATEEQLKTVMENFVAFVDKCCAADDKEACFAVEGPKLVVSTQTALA

Luminex signal [1]: 473
Luminex signal (B X DGNEEMGGITQTPYK): 404
Luminex signal (B X NEEMGGITQTPYKVS): 40.5
Luminex signal (B X EEMGGITQTPYKVSI): 43
Luminex signal (B X EMGGITQTPYKVSIS): 44.5
Luminex signal (B X MGGITQTPYKVSISG): 26.5
Luminex signal (B X TQTPYKVSISGTTVI): 47.5
Luminex signal (B X TPYKVSISGTTVILT): 31
Luminex signal (B X ADGNEEMGGITQTPY): 11300
Luminex signal (B X QAGNEEMGGITQTP): 45
Luminex signal (B X QDANEEMGGITQTP): 32.5
Luminex signal (B X QDGNEAMGGITQTP): 1480
Luminex signal (B X QDGNEEAGGITQTP): 2580
Luminex signal (B X QDGNEEMAGITQTP): 2510
Luminex signal (B X QDGNEEMGAITQTP): 2660
Luminex signal (B X QDGNEEMGGIAQTP): 2910
Luminex signal (huCD3d/eCHO-E DT1331): 23200
Luminex signal (BSA alone): 420
Luminex signal (vCD3e #p1 peptide): 20300
Luminex signal [2]: 3160
B1: 6d59 (antibody, V domains shown)
VH: QVHLVESGGGVVQPGRSLRLSCAASGFKFRSYGMHWVRQAPGKGLEWVAIIWYDGSKRYYADSVKGRFTISRDNSKNTLYLQMSSLRAEDTAVYYCARDLITGTTDYWGQGTLVTVSS
VL: DVVMTQSPLSLPVTLGQPASISCRSSRSLVYSDGNTHLIWFQQRPGQSPRRLIYRVSNRVSGVPDRFSGSGSGTDFTLKISRVEAEDVGVYYCLQGAHWPYTFGQGTKLEIKR
notes: also called 6d59.1; VCD3-6d59.1
